Laboratory results reported in publication PMC11544104.

Experiments:
[1] = test system: BAF complex, FLAG-DPF2 WT (293T) (human); experiment: pull-down; details: histone H3K56ac (recombinant Xenopus laevis octamer)
[2] = biological target: H3K56ac-mononucleosome assembled with 35N35 DNA (Xenopus laevis); experiment: pull-down

35N35 mononucleosome, H3K56ac
binding signal (normalized bound DPF2 (reference)) [1]: 1

BAF complex containing DPF2 C330W (from UniProt Q92785;P51532)
fold reduction of the preferential interaction against the WT complex [2]: 5 fold

BAF complex containing DPF2 R350H (from UniProt Q92785;P51532)
fold reduction of the preferential interaction against the WT complex [2]: 5 fold

BAF complex containing DPF2 W369R (from UniProt Q92785;P51532)
fold reduction of the preferential interaction against the WT complex [2]: 5 fold
